Substrate: NC(=O)C1=CN([C@@H]2O[C@H](COP(=O)(O)OP(=O)(O)OC[C@H]3O[C@@H](n4cnc5c(N)ncnc54)[C@H](OP(=O)(O)O)[C@@H]3O)[C@@H](O)[C@H]2O)C=CC1
Assay: purified protein
Format: biochemical, Pyrococcus furiosus
Conditions: FAD; two [4Fe-4S] clusters oxidized by L-FAD

B1: NfnL (large subunit of NADH-dependent reduced-ferredoxin: NADP+ oxidoreductase NfnSL) (Pyrococcus furiosus DSM 3638) (protein)
chain: MPRLIKDRVPTPERSVGERVRDFGEVNLGYSWELALREAERCLQCPVEYAPCIKGCPVHINIPGFIKALRENRDNPSKAVREALRIIWRDNTLPAITGRVCPQEEQCEGACVVGKVGDPINIGKLERFVADYAREHGIDDELLLEEIKGIKRNGKKVAIIGAGPAGLTCAADLAKMGYEVTIYEALHQPGGVLIYGIPEFRLPKEIVKKELENLRRLGVKIETNVLVGKTITFEELREEYDAIFIGTGAGTPRIYPWPGVNLNGIYSANEFLTRINLMKAYKFPEYDTPIKVGKRVAVIGGGNTAMDAARSALRLGAEVWILYRRTRKEMTAREEEIKHAEEEGVKFMFLVTPKRFIGDENGNLKAIELEKMKLGEPDESGRRRPIPTGETFIMEFDTAIIAIGQTPNKTFLETVPGLKVDEWGRIVVDENLMTSIPGVFAGGDAIRGEATVILAMGDGRKAAKAIHQYLSKEK
notes: isolated NfnL-WT subunit
Work on B1 yielded a Km of 1300 ± 100 µM, a Vmax of 3000 µM/min and a kcat of 2.3 ± 0.3 s⁻¹. For the same protein, the kcat/Km was 1700 ± 300 M⁻¹ s⁻¹.

— PMC9503767, “Site-Differentiated Iron–Sulfur Cluster Ligation Affects Flavin-Based Electron Bifurcation Activity” (Metabolites, 2022)
